Measurements published in patent US7704703B2, “Arf and Hdm2 interaction domains and the methods of use thereof” (St. Jude Children's Research Hospital, Inc., priority 2002, dated 2010).

T1: mArfN37 (Mus musculus, UniProt Q64364)
T1 construct: mouse p19^Arf corresponding to residues 1-37 (mArfN37); made in house; host or cells: E. coli BL21(DE3) (purified 'in a similar manner' to the Hdm2 fragments)
T1 sequence (Q64364 1-37 limits assumed): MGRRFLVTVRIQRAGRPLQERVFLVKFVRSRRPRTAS

T2: GFP-p19^Arf (Mus musculus, UniProt Q64364)
T2 construct: expressed in transfected cells; host or cells: NIH 3T3 Arf-/- cells
T2 sequence (Q64364 1-169): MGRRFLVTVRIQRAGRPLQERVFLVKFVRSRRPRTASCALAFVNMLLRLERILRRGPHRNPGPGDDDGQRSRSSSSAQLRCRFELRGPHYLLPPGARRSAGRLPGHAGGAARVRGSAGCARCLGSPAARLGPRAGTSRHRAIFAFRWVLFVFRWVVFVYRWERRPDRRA


Experiments:
mArfN37 = molecular target: T1, mArfN37; assay: Surface plasmon resonance: Hdm2 fragments and peptides binding to immobilized His-tagged mArfN37; details: Hdm2 protein fragments as analyte; no binding to control surface
Protocol: Surface Plasmon Resonance. Binding studies were performed using a Biacore 3000 surface plasmon resonance (SPR) instrument (Biacore, Inc.). A Tetra-His™ Antibody (Qiagen, Inc.; Cat. #34670) was covalently attached to a carboxymethylated gold surface (C-1 chip; Biacore, Inc.). The carboxymethyl groups on the surface were activated with N-ethyl-N′-(3-dimethylaminopropyl) carbodiimide (EDC) and N-hydroxysuccinimide (NHS) and the antibody was attached at pH 7.4 in 20 mM sodium phosphate buffer, 150 mM NaCl (PBS). Reactive sites remaining on the surface were blocked by reaction with ethanolamine. […] Binding was measured by flowing the non-His-tagged analyte through the reference and ligand-containing flow cells in sequence. […] Changes in the SPR response due to solvent differences and the injection process were monitored by injection of HBS-N buffer alone. […]
Small segments of Arf and Hdm2 participate in Arf/Hdm2 interactions. […] However, because mArfN37 is a relatively small polypeptide, it was determined whether it could bind a correspondingly small segment of Hdm2. To test this hypothesis and to monitor Arf/Hdm2 binding reactions quantitatively, Hdm2 constructs were prepared spanning amino acids 210-304 of SEQ ID NO:8 and 210-275 of SEQ ID NO:8 and then it was determined whether they could bind mArfN37 using surface plasmon resonance (SPR). […]

GFP-p19^Arf = molecular target: T2, GFP-p19^Arf; assay: Microinjection and live cell imaging of Texas Red labeled Hdm2 constructs in NIH 3T3 cells lacking Arf; type: cell-based; details: transfected with GFP-p19^Arf
Protocol: Fluorescent labeling. Proteins for fluorescence microimaging studies were covalently modified using an amine-reactive, sulfosuccinimidyl ester of TEXAS RED® (C31H29S2N2O6Cl1) (Molecular Probes, Inc., Cat. # C-1171). In brief, purified Hdm2-derived proteins were dialyzed into 100 mM sodium bicarbonate buffer, pH 8.3 at 2-4 mg/ml. The Texas Red™ dye was dissolved in dimethylsulfoxide at 10 mg/ml. Protein and dye 3:1 (vol:vol) were reacted for 1 hour at room temperature followed by purification using size-exclusion chromatography (NAP 5 G-25 columns, Amersham Pharmacia Biotech, Inc.). […]
Cell culture and microinjection. […] GFP-Arf positive cells were then located and co-injected with TEXAS RED® (C31H29S2N2O6C1 labeled Hdm2 polypeptides (2 mg/ml in 20 mM Tris-HCl, 100 mM NaCl, pH 7.0) using a Micromanipulator 5171/Transjector 5246 (Eppendorf, AG) in media supplemented with 10 mM HEPES, pH 7.2 to buffer cell media during injection and imaging. Representative cells were imaged over time. An Axiovert 135 TV inverted fluorescence microscope with an automated stage controller (Carl Zeiss, Inc.) and circulating water bath heater (Fisher) was used for both microinjection and imaging. Images were acquired with a Zeiss 40×NA=1.30 oil objective and MicroMax CCD camera (Princeton Instruments Inc.) operated with MetaMorph Version 4.01 imaging software. […]

binding of Hdm2 fragment to His-tagged mArfN37 immobilized on SPR biosensor surface (mArfN37)	Molecule	localization after nuclear microinjection in the presence of GFP-p19^Arf (GFP-p19^Arf)
bind tightly	Hdm2 210-275: fragment of Hdm2 corresponding to residues 210-275 of SEQ ID NO:8 (protein, listed as Homo sapiens) SSSSESTGTPSNPDLDAGVSEHSGDWLDQDSVSDQFSVEFEVESLDSEDYSLSEEGQELSDEDDEV	nucleolar localization
	Hdm2 277-350: Texas Red labeled Hdm2 deletion construct containing residues 277-350 (protein) QVTVYQAGESDTDSFEEDPEISLADYWKCTSCNEMNPPLPSHCNRCWALRENWLPEDKGKDKGEISEKAKLENS	localized in the nucleoplasm rather than in nucleoli
